Measurements taken from the supplement of paper PMC10567573.

B1: TIA1 (parent)
chain: TYECRCIGEEKEMWNFGEKYARF
B2: PLAGL1 (parent)
chain: CKDFLCQFCAQRFGRKDHLTRHTK

Variants of: B1
Test: protein stability index of a GFP-peptide fusion (GPS, HEK-293T) (PSI 1-6); higher = more stable
Conditions: c terminus: native
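Note: lentivirally expressed fusions sorted by FACS into six bins by GFP to DsRed ratio, PSI derived from sequencing read proportions per bin multiplied by bin number.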

Variant	protein stability index
K19V	1.76
K19S	2.27
K19F	2.16
K19E	3.18
K19I	1.62
K19C	1.85
K19A	1.65
K19M	1.29
K19L	1.59
K19G	2.51
K19R	2.44
K19Y	4.2
K19P	3.04
K19T	2.06
K19D	3.32
K19Q	2.41
E12W	2.5
E12D	1.91
E12V	1.59
E12F	3.56
E12H	2.03
E12N	2.08
E12Q	2.3
E12C	2.08

Variant	protein stability index
E12S	2.21
E12I	1.39
E12G	2.71
E12M	1.88
E12P	2.35
E12R	1.42
E12T	2.19
E12Y	1.3
E12L	2.33
E12K	1.4
E10W	2.52
E10D	1.99
E10Q	1.71
E10T	1.43
E10P	2.12
E10L	2.25
E10A	2.85
E10H	2.49
E10S	2.23
E10C	2.25
E10N	1.83
E10I	2.56
E10G	1.86
E10V	1.58

Variant	protein stability index
Y20C	1.81
Y20F	2.86
Y20A	2.58
Y20E	3.6
Y20D	3.16
E18L	1.94
E18I	2.3
E18F	2.24
E18Y	1.89
E18T	1.67
E18H	2.97
E18V	3
E18C	2.41
E18S	1.97
E18P	1.65
E18A	1.27
E18K	2.49
E18N	1.79
E18W	3.12
E18D	2.22
E18M	1.81
E18Q	1.8
E9A	1.85
E9N	2.29

Variant	protein stability index
E9W	1.74
E9L	3.02
E9G	2.09
E9K	2.49
E9Y	1.85
E9R	1.88
E9I	1.89
E9C	2.1
E9D	2.28
E9P	1.82
E9Q	2.46
E9F	1.81
E9S	1.84
E9M	1.33
E9V	1.92
E9T	1.61
E9H	1.74
C6Q	3.9
C6T	3.1
C6I	2.89
C6F	3.08
C6L	1.56
C6A	2.92
C6M	1.84

Variant	protein stability index
C6N	3.44
C6K	3.64
C6S	3.8
C6H	3.75
C6E	4.37
C6W	1.53
C6R	3.38
C6G	3.94
C6P	3.72
C6D	4.2
C6Y	2.14
E3N	1.98
E3P	2.47
E3K	1.66
E3C	3.65
E3Y	2.18
E3D	3.24
E3R	1
E3A	2.23
E3S	1.94
E3T	3.76
E3G	2.14
E3H	1.8
E3M	2.49

Variant	protein stability index
E3Q	2.61
E3L	2.42
T1L	1.7
T1Q	2.35
T1K	1.83
T1H	2.31
T1W	1.68
T1M	3.02
T1Y	1.63
T1E	4.38
T1I	2.19
T1A	2.54
T1G	2.27
T1D	3.71
T1V	1.8
T1N	3.21
T1P	3.63
T1R	1.68
T1C	1.23
T1S	2.51
R5N	2.86
R5C	1.97
R5Q	1.73
R5E	2.02

Variant	protein stability index
R5L	2.29
R5I	2.8
R5F	2.1
R5Y	1.35
R5W	1.98
R5V	2.46
R5S	2.54
R5T	2.31
R5H	2.62
R5K	2.3
R5A	1.66
R5D	3.07
R5G	2.93
R5P	3.48
M13A	1.74
M13L	2.48
M13D	2.19
M13K	1.87
M13N	2.31
M13F	1.23
M13P	2.19
M13I	2.07
M13W	3.09
M13G	2.61

Variant	protein stability index
M13T	2.18
M13R	2.11
M13S	1.98
M13V	2.03
M13H	2.24
M13Y	1.56
M13C	2.14
M13Q	1.71
I7R	1.8
I7V	1.76
I7K	2.18
I7F	2.12
I7D	2.87
I7Y	2.3
I7G	3
I7E	3.42
I7Q	3.02
I7P	3.87
I7S	2.16
I7L	1.98
I7M	1.72
I7H	3.01
I7T	2.98
I7N	2.66

Variant	protein stability index
G8I	2.04
G8F	2.01
G8S	1.98
G8V	2.65
G8R	3.32
G8H	1.46
G8T	2.47
G8N	2.28
G8C	1.6
G8D	1.58
G8K	2.18
G8A	2.54
G8Y	2.37
G8P	2.14
G17D	3.11
G17P	2.15
G17I	1.16
G17Q	2.1
G17M	1.86
G17E	2.16
G17H	2
G17V	2.03
G17A	2.27
G17Y	1.7

Variant	protein stability index
G17K	1.98
G17W	2.2
G17T	2.89
G17L	2.35
G17S	1.72
G17R	2.1
G17F	1.81
G17C	1.75
G17N	3.29
N15Y	1.56
N15E	2.37
N15V	2.3
N15I	2.02
N15Q	1.42
N15S	2.13
N15K	1.86
N15P	2.25
N15F	2.46
N15T	1.92
N15L	2.37
N15G	2
N15C	1.96
N15W	2.77
N15H	2.33

Variant	protein stability index
N15D	2.04
N15M	1.43
K11D	2.38
K11T	3.28
K11P	2.02
K11V	2.57
K11G	2.62
K11R	1.57
K11I	1.3
K11A	3.42
K11Q	1.84
K11W	1.83
K11Y	2.17
K11E	2.54
K11L	1.5
K11N	2.69
K11F	1.53
K11M	1.88
K11C	3.31
K11S	1.98
K11H	1.78
F16H	2.26
F16C	2.42
F16E	2.9

Variant	protein stability index
F16D	2.78
F16S	2.66
F16P	1.91
F16K	2.44
F16V	2.45
F16R	2.14
F16G	2.29
F16A	2.43
F16W	1.77
F16Y	2.2
F16N	1.85
F16M	3
F16I	1.57
F16L	1.74
F16T	3
W14L	1.64
W14Y	2.65
W14A	2.14
W14N	2.1
W14P	2.31
W14E	2.51
W14C	2.17
W14T	2.22
W14M	2.27

Variant	protein stability index
W14H	2.49
W14G	2.88
W14K	1.6
W14I	2.28
W14V	2.34
W14D	2.61
W14Q	2.24
W14S	2.98
W14F	2.39
C4N	2.31
C4V	1.88
C4T	2.31
C4L	2.85
C4I	2.31
C4H	3.33
C4Q	1.67
C4A	3.13
C4R	2.31
C4E	2.2
C4M	2.62
C4F	2.28
C4P	3.81
C4S	2.01
C4Y	1.93

Variant	protein stability index
C4W	1.91
C4K	3.16
Y2L	3.66
Y2N	3.75
Y2R	3.07
Y2W	4.98
Y2P	3.99
Y2D	4.27
Y2M	2.88
Y2F	4.21
Y2V	3.16
Y2K	3.51
Y2Q	3.97
Y2H	2.44
Y2I	3.31
Y2T	4.18
Y2C	3.3
Y2S	3.2
Y2E	4.79
Y2A	2.94
Y2G	4.38

Variants of: B2
Test: as above
Conditions: c terminus: a fixed tail appended

Variant	protein stability index
K24Y	1.56
